Reference: patent US20090099029

T1: Bovine, dephosphorylated, Myelin Basic Protein (MBP), P02687
T1 chain: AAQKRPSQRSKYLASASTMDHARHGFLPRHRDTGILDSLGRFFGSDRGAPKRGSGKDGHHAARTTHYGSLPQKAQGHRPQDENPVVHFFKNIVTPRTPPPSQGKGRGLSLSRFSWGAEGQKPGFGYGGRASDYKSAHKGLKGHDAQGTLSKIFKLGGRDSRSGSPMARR

B1: ROCK2 (protein)
chain: MSRPPPTGKMPGAPETAPGDGAGASRQRKLEALIRDPRSPINVESLLDGLNSLVLDLDFPALRKNKNIDNFLNRYEKIVKKIRGLQMKAEDYDVVKVIGRGAFGEVQLVRHKASQKVYAMKLLSKFEMIKRSDSAFFWEERDIMAFANSPWVVQLFYAFQDDRYLYMVMEYMPGGDLVNLMSNYDVPEKWAKFYTAEVVLALDAIHSMGLIHRDVKPDNMLLDKHGHLKLADFGTCMKMDETGMVHCDTAVGTPDYISPEVLKSQGGDGFYGRECDWWSVGVFLYEMLVGDTPFYADSLVGTYSKIMDHKNSLCFPEDAEISKHAKNLICAFLTDREVRLGRNGVEEIRQHPFFKNDQWHWDNIRETAAPVVPELSSDIDSSNFDDIEDDKGDVETFPIPKAFVGNQLPFIGFTYYRENLLLSDSPSCRETDSIQSRKNEESQEIQKKLYTLEEHLSNEMQAKEELEQKCKSVNTRLEKTAKELEEEITLRKSVESALRQLEREKALLQHKNAEYQRKADHEADKKRNLENDVNSLKDQLEDLKKRNQNSQI
B2: PRKX (protein)
chain: MEAPGLAQAAAAESDSRKVAEETPDGAPALCPSPEALSPEPPVYSLQDFDTLATVGTGTFGRVHLVKEKTAKHFFALKVMSIPDVIRLKQEQHVHNEKSVLKEVSHPFLIRLFWTWHDERFLYMLMEYVPGGELFSYLRNRGRFSSTTGLFYSAEIICAIEYLHSKEIVYRDLKPENILLDRDGHIKLTDFGFAKKLVDRTWTLCGTPEYLAPEVIQSKGHGRAVDWWALGILIFEMLSGFPPFFDDNPFGIYQKILAGKIDFPRHLDFHVKDLIKKLLVVDRTRRLGNMKNGANDVKHHRWFRSVDWEAVPQRKLKPPIVPKIAGDGDTSNFETYPENDWDTAAPVPQKDLEIFKNF
B3: PRKCN(PKD3) (protein)
chain: MSANNSPPSAQKSVLPTAIPAVLPAASPCSSPKTGLSARLSNGSFSAPSLTNSRGSVHTVSFLLQIGLTRESVTIEAQELSLSAVKDLVCSIVYQKFPECGFFGMYDKILLFRHDMNSENILQLITSADEIHEGDLVEVVLSALATVEDFQIRPHTLYVHSYKAPTFCDYCGEMLWGLVRQGLKCEGCGLNYHKRCAFKIPNNCSGVRKRRLSNVSLPGPGLSVPRPLQPEYVALPSEESHVHQEPSKRIPSWSGRPIWMEKMVMCRVKVPHTFAVHSYTRPTICQYCKRLLKGLFRQGMQCKDCKFNCHKRCASKVPRDCLGEVTFNGEPSSLGTDTDIPMDIDNNDINSDSSRGLDDTEEPSPPEDKMFFLDPSDLDVERDEEAVKTISPSTSNNIPLMRVVQSIKHTKRKSSTMVKEGWMVHYTSRDNLRKRHYWRLDSKCLTLFQNESGSKYYKEIPLSEILRISSPRDFTNISQGSNPHCFEIITDTMVYFVGENNGDSSHNPVLAATGVGLDVAQSWEKAIRQALMPVTPQASVCTSPGQGKDHKDLSTSISVSNCQIQENVDISTVYQIFADEVLGSGQFGIVYGGKHRKTGRDVAIKVIDKMRFPTKQESQLRNEVAILQNLHHPGIVNLECMFETPERVFVVMEKLHGDMLEMILSSEKSRLPERITKFMVTQILVALRNLHFKNIVHCDLKPENVLLASAEPFPQVKLCDFGFARIIGEKSFRRSVVGTPAYLAPEVLRSKGYNRSLDMWSVGVIIYVSLSGTFPFNEDEDINDQIQNAAFMYPPNPWREISGEAIDLINNLLQVKMRKRYSVDKSLSHPWLQDYQTWLDLREFETRIGERYITHESDDARWEIHAYTHNLVYPKHFIMAPNPDDMEEDP
B4: PRKD2(PKD2) (protein)
chain: MATAPSYPAGLPGSPGPGSPPPPGGLELQSPPPLLPQIPAPGSGVSFHIQIGLTREFVLLPAASELAHVKQLACSIVDQKFPECGFYGLYDKILLFKHDPTSANLLQLVRSSGDIQEGDLVEVVLSASATFEDFQIRPHALTVHSYRAPAFCDHCGEMLFGLVRQGLKCDGCGLNYHKRCAFSIPNNCSGARKRRLSSTSLASGHSVRLGTSESLPCTAEELSRSTTELLPRRPPSSSSSSSASSYTGRPIELDKMLLSKVKVPHTFLIHSYTRPTVCQACKKLLKGLFRQGLQCKDCKFNCHKRCATRVPNDCLGEALINGDVPMEEATDFSEADKSALMDESEDSGVIPGSHSENALHASEEEEGEGGKAQSSLGYIPLMRVVQSVRHTTRKSSTTLREGWVVHYSNKDTLRKRHYWRLDCKCITLFQNNTTNRYYKEIPLSEILTVESAQNFSLVPPGTNPHCFEIVTANATYFVGEMPGGTPGGPSGQGAEAARGWETAIRQALMPVILQDAPSAPGHAPHRQASLSISVSNSQIQENVDIATVYQIFPDEVLGSGQFGVVYGGKHRKTGRDVAVKVIDKLRFPTKQESQLRNEVAILQSLRHPGIVNLECMFETPEKVFVVMEKLHGDMLEMILSSEKGRLPERLTKFLITQILVALRHLHFKNIVHCDLKPENVLLASADPFPQVKLCDFGFARIIGEKSFRRSVVGTPAYLAPEVLLNQGYNRSLDMWSVGVIMYVSLSGTFPFNEDEDINDQIQNAAFMYPASPWSHISAGAIDLINNLLQVKMRKRYSVDKSLSHPWLQEYQTWLDLRELEGKMGERYITHESDDARWEQFAAEHPLPGSGLPTDRDLGGACPPQDHDMQGLAERISVL
B5: EPHB3 (protein)
chain: CLRKQRHGSDSEYTEKLQQYIAPGMKVYIDPFTYEDPNEAVREFAKEIDVSCVKIEEVIGAGEFGEVCRGRLKQPGRREVFVAIKTLKVGYTERQRRDFLSEASIMGQFDHPNIIRLEGVVTKSRPVMILTEFMENCALDSFLRLNDGQFTVIQLVGMLRGIAAGMKYLSEMNYVHRDLAARNILVNSNLVCKVSDFGLSRFLEDDPSDPTYTSSLGGKIPIRWTAPEAIAYRKFTSASDVWSYGIVMWEVMSYGERPYWDMSNQDVINAVEQDYRLPPPMDCPTALHQLMLDCWVRDRNLRPKFSQIVNTLDKLIRNAASLKVIASAQSGMSQPLLDRTVPDYTTFTTVGDWLDAIKMGRYKESFVSAGFASFDLVAQMTAEDLLRIGVTLAGHQKKILSSIQDMRLQMNQTLPVQV
B6: ROCK1 (protein)
chain: MSTGDSFETRFEKMDNLLRDPKSEVNSDCLLDGLDALVYDLDFPALRKNKNIDNFLSRYKDTINKIRDLRMKAEDYEVVKVIGRGAFGEVQLVRHKSTRKVYAMKLLSKFEMIKRSDSAFFWEERDIMAFANSPWVVQLFYAFQDDRYLYMVMEYMPGGDLVNLMSNYDVPEKWARFYTAEVVLALDAIHSMGFIHRDVKPDNMLLDKSGHLKLADFGTCMKMNKEGMVRCDTAVGTPDYISPEVLKSQGGDGYYGRECDWWSVGVFLYEMLVGDTPFYADSLVGTYSKIMNHKNSLTFPDDNDISKEAKNLICAFLTDREVRLGRNGVEEIKRHLFFKNDQWAWETLRDTVAPVVPDLSSDIDTSNFDDLEEDKGEEETFPIPKAFVGNQLPFVGFTYYSNRRYLSSANPNDNRTSSNADKSLQESLQKTIYKLEEQLHNEMQLKDEMEQKCRTSNIKLDKIMKELDEEGNQRRNLESTVSQIEKEKMLLQHRINEYQRKAEQENEKRRNVENEVSTLKDQLEDLKKVSQNSQL

Target: T1, Bovine, dephosphorylated, Myelin Basic …

Protein | MBP Kinase Activity
B1 | Strong
B2 | Negative
B3 | Weak
B4 | Strong
B5 | Strong
B6 | Strong
